Experimental data taken from patent publication US20240010721A1 (HARBOUR BIOMED SHANGHAI, published 2024).
Read-outs that look alike come from different tables or passages of the source.

What was measured:
[1] = target: T1, hROR2ECD-his (human, UniProt Q01974 34-403); assay: ELISA, plate coated with hROR2 ECD-his
T1 construct: extracellular domain; bought, Acrobiosystems R02-H52E5; also called huROR2-his
Procedure: (§1) Screening by ELISA assay: 96-well plates (Corning 9018) were coated with 1 μg/mL hROR1 ECD-his/hROR2 ECD-his/mROR1 ECD-his proteins prepared with PBS in Example 1a above and incubated at 4° C. overnight. The liquid was then discarded, and the plates were washed 3 times with PBST, blocked with 5% milk for 2 h at room temperature, and washed 3 times with PBST. The taken supernatant was added at 100 μL/well, and the plates were incubated at room temperature for 1 h, followed by washing 3 times with PBST. 100 μL/well of secondary antibody (Sigma, Cat#: A8592) was added, the plates were incubated at room temperature for 1 h, and then washed. TMB was then added to the plates at 100 μL/well and incubated for 15 min at room temperature. Thereafter, the reaction was terminated and data were read.
(§2) a. Results of ELISA assay (the ELISA assay was performed according to the same procedures as in Example 2c, except that the added samples were recombinant antibodies and the secondary antibody was a-Fc (Genscript, Cat#: A01854))

[2] = target: T2, human ROR1 (hROR1) on cells (human, UniProt Q01973 30-937); assay: cell-based or functional assay
T2 sequence (Q01973 30-937): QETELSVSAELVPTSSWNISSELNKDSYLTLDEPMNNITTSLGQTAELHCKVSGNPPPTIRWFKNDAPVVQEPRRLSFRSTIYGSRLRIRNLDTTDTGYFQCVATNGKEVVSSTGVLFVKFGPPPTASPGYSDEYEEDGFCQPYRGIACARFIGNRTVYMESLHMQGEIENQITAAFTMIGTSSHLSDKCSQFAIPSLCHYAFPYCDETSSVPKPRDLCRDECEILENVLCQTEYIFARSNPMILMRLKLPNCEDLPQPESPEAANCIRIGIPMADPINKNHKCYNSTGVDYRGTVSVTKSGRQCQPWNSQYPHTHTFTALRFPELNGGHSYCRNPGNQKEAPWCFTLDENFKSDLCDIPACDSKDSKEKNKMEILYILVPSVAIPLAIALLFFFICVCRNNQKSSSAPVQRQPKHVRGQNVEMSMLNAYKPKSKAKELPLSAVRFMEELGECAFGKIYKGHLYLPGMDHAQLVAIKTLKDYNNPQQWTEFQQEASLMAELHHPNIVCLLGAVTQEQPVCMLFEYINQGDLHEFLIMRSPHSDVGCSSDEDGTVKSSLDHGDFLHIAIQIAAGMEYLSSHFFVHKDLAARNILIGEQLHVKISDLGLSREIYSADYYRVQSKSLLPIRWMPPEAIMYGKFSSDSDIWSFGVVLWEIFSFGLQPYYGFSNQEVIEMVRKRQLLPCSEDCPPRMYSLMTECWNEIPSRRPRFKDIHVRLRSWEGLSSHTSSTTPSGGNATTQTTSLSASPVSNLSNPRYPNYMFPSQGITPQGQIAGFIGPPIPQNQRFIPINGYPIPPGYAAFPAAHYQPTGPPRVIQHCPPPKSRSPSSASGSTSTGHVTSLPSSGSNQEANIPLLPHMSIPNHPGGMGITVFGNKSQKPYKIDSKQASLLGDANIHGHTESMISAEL

[3] = target: T3, ROR1 (antigen of the KD determination and of the Octet dissociation measurement) (UniProt Q01973 30-403, limits assumed); assay: method not stated (conventional procedures)
T3 sequence (Q01973 30-403 limits assumed): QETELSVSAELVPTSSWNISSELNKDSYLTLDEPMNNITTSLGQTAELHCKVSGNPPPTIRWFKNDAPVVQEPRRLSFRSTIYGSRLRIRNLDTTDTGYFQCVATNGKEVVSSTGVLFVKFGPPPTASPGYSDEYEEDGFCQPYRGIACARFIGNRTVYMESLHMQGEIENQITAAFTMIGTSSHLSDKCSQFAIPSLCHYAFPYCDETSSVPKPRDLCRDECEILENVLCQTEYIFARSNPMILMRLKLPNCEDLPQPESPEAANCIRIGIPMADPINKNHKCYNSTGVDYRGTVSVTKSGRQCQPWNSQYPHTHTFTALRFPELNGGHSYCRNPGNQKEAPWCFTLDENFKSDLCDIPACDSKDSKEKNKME

[4] = target: T1, hROR2ECD-his; assay: ELISA, plate coated with hROR2 ECD-his; remark: listed apart in the source
Procedure: as §1, §2
The corresponding values in the table are the measured median fluorescence intensity (MFI).

[5] = target: T2, human ROR1 (hROR1) on cells; assay: FACS, HEK293T-hROR1 cells; cytometer saturated
Procedure: (§3) The binding properties were characterized by FACS. The recombinant antibodies obtained above were serially diluted to 9 different concentrations and incubated for 1 h, and then determined for the binding ability with HEK293T-hROR1, CHO-K1-cynoROR1 and A549 cell lines (endogenously expressing ROR1), respectively. The secondary antibody was then incubated for 1 h. The results are shown in FIG. 4-6 and Table 7-2 below.

[6] = target: T4, Human ROR1-ECD-his (human, UniProt Q01973 30-406); assay: ELISA, plate coated with hROR1 ECD-his
T4 construct: extracellular domain; bought, Acrobiosystems RO1-H522y; also called hROR1-ECD-his; hROR1 ECD-his
T4 sequence (Q01973 30-406): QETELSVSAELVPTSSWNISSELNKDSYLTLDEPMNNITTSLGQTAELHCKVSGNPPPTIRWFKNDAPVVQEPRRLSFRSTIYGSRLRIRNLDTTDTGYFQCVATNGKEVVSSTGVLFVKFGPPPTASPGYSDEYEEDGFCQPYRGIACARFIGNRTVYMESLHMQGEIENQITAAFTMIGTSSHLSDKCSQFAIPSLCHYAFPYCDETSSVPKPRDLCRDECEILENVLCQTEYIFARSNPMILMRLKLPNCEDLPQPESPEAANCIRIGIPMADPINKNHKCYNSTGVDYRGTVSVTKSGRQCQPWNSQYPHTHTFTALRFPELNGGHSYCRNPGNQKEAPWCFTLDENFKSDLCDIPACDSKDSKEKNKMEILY
Procedure: as §1, §2

[7] = target: T5, cynomolgus ROR1 (cynoROR1) on CHO-K1 cells (cynomolgus, UniProt A0A2K5WTX7 30-937); assay: FACS, CHO-K1-cynoROR1 cells
T5 construct: whole, on cells; also called CHO-K1-cynoROR1; CHO-K1-cyROR1
Procedure: as §3

[8] = target: T2, human ROR1 (hROR1) on cells; assay: FACS, A549 cells
Procedure: as §3

[9] = target: T2, human ROR1 (hROR1) on cells; assay: FACS, HEK293T-hROR1 cells
Procedure: as §3

[10] = target: T2, human ROR1 (hROR1) on cells; assay: cell-based or functional assay; remark: listed apart in the source
[11] = target: T3, ROR1 (antigen of the KD determination …); assay: Octet, antigen form not stated
[12] = target: T2, human ROR1 (hROR1) on cells; assay: FACS, HEK293T-hROR1 cells; remark: listed apart in the source
[13] = target: T2, human ROR1 (hROR1) on cells; assay: FACS, Panc-1 cells
[14] = target: T5, cynomolgus ROR1 (cynoROR1) on CHO-K1 …; assay: flow cytometry (FACS) on CHO-K1-cynoROR1 cells, antibody 0.01-100 nM, median fluorescence intensity
Procedure: as §3

[15] = target: T2, human ROR1 (hROR1) on cells; assay: flow cytometry (FACS) on A549 cells (endogenous ROR1), antibody 0.01-100 nM, median fluorescence intensity
Procedure: as §3

[16] = target: T5, cynomolgus ROR1 (cynoROR1) on CHO-K1 …; assay: flow cytometry (FACS) on CHO-K1-cynoROR1 cells, antibody 0.01-100 nM, median fluorescence intensity; remark: listed apart in the source
Procedure: as §3

[17] = target: T2, human ROR1 (hROR1) on cells; assay: flow cytometry (FACS) on HEK293T-hROR1 cells, antibody 0.01-100 nM, median fluorescence intensity
Procedure: as §3

T1 sequence (Q01974 34-403): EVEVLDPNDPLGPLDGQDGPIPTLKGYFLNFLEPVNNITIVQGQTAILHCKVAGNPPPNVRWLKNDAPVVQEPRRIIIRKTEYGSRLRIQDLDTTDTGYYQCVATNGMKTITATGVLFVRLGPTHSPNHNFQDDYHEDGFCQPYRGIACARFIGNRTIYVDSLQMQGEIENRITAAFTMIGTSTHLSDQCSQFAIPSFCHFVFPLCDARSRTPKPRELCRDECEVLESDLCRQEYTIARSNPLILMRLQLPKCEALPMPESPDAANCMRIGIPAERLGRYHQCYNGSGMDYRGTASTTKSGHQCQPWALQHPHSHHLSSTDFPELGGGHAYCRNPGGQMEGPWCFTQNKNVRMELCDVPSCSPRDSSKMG

Binder	ELISA signal (called MFI) [1]	Kd [3] [nM]	koff [3] [s⁻¹]	kon [3] [M⁻¹ s⁻¹]	binding result [4]	MAX(MFI) [5] [MFI]	ELISA signal (called MFI) [6]	MAX(MFI) [7] [MFI]	MAX(MFI) [8] [MFI]	fold lower EC50 than reference PR000374 [9] [fold]	EC50 (read off the curve) [14] [nM]	endocytosis EC50(nM) (a-hFc-MMAF killing, CTG luminescence) [2]	ADCC Cytotoxicity (%), Donor 1, 1 nM [10] [%]	ADCC Cytotoxicity (%), Donor 1, 10 nM [10] [%]	ADCC Cytotoxicity (%), Donor 2, 1 nM [10] [%]	ADCC Cytotoxicity (%), Donor 2, 10 nM [10] [%]	further results
PR001353 (antibody, V domains shown, fully human IgG1, kappa) VH: QVQLVESGGGVVQPGRSLRLSCVASGFTFSSYGMHWVRQAPGKGLEWVSVAWYDGISKDYADSVKGRFTISRDNSMNTLFLQMNSLRAEDTAVYYCAREQARSFDLWGRGTLVTVSS VL: not shown	0.031	2.21	0.000927	419000	no binding	262000	2.54	29000	4330	10		0.149	30.5	42.3	14.1	21.5	
PR001362 (antibody, V domains shown, fully human IgG1, kappa) VH: QVQLVESGGGLVQPGGSLRLSCAASGFTFSTYGMHWVRQAPGKGLEWVAVIWYDGSDEDYADSVKGRFTISRDNSKNTLYLQMNSLRAEDTAVYYCARDQARSFDLWGRGTLVTVSS VL: DIVMTQSPSTLSASVGDRVTITCRASQSINSWLAWYQQKPGKAPKLLIYKASSLESGVPSRFSGSGSGTEFTLTISSLQPDDFATYYCQQYKSYSPMYTFGQGTKVEIKR	0.032	45.4	0.0136	300000	no binding	262000	2.22	17700	3750	10	~2		13.9	26.9	13.2	19.2	

These reach a lower Kd [3]. Values come first.

ELISA signal (called MFI) [1]	Kd [3] [nM]	koff [3] [s⁻¹]	kon [3] [M⁻¹ s⁻¹]	binding result [4]	MAX(MFI) [5] [MFI]	ELISA signal (called MFI) [6]	MAX(MFI) [7] [MFI]	MAX(MFI) [8] [MFI]	fold lower EC50 than reference PR000374 [9] [fold]	EC50 (read off the curve) [14] [nM]	Binder	endocytosis EC50(nM) (a-hFc-MMAF killing, CTG luminescence) [2]	ADCC Cytotoxicity (%), Donor 1, 1 nM [10] [%]	ADCC Cytotoxicity (%), Donor 1, 10 nM [10] [%]	ADCC Cytotoxicity (%), Donor 2, 1 nM [10] [%]	ADCC Cytotoxicity (%), Donor 2, 10 nM [10] [%]	further results
0.027	1.13	0.000383	339000	no binding	262000	2.44	27000	4300	10		PR001354 (antibody, human IgG1, kappa, V domains shown, fully human IgG1, kappa; also called anti-ROR1 1015M2-C9 hIgG1; PR001354(WT)) VH: QVQLVQSGGGVVQPGRSLRLSCAASGFTFSSYGMHWVRQAPGKGLEWVAIMWYDGSDKDYADSVKGRFTISRDTSKNTLYLQMNSLRAEDTAVYYCAREQARSFDLWGRGTLVTVSS VL: DIVMTQSPSSLSASVGDRVTITCRASQTINNWLAWYQQKPGKAPKLLIYKASSLESGVPSRFSGSGSGTEFTLTISSLQPDDFATYYCQQYNSYSPMYTFGQGTKVEIKR	0.143	33.5	34.7	14.4	15.9	Response [11]: 0.609; koff [11]: 0.000117 s⁻¹; MFI [12]: 42800 MFI; MFI [13]: 6700 MFI
0.04	0.481	0.000191	397000	no binding	262000	2.5	24600	4550	10		PR001357 (antibody, human IgG1, kappa, V domains shown, fully human IgG1, kappa) VH: QVQLVQSGGGVVQPGRSLRLSCAASGFTFSSYGMHWVRQAPGKGLEWVAVIWYDGSNKDYADSVKGRFTISRDTSKNTLYLQMNSLRAEDTAVYYCAREQARSFDLWGRGTLVTVSS VL: DIQLTQSPYSLSASVGDRVTITCRASQTINNWLAWYQQKPGKAPKLLIYKASSLESGVPSRFSGSGSGTEFTLTISSLQPDDFATYYCQQYKLYSPMYTFGQGTKVEIKR	0.137	32.1	32.1	17.4	15.8	
0.022	0.397	0.000173	437000		262000	2.48	31900	3850		~3	Positive control antibody (PR000374) (antibody, human IgG1, kappa, V domains shown) VH: EVQLVESGGGLVQPGRSLRLSCTASGSDINDYPITWVRQAPGQGLEWIGFINSGGSTWYASWVKGRFTISRDDSKSIAYLQMNSLKTEDTAVYYCARGYSTYYRDFNIWGQGTLVTVSS VL: DIQMTQSPSSLSASVGDRVTINCQASQSIDSNLAWFQQKPGQPPKLLIYRASNLASGVPDRFSGSGSGTDFTLTISSLEAEDVATYYCLGGVGAVSYRTSFGGGTKVEIKR	0.243	14.4	25.4	11.4	18.2	EC50 (read off the curve) [15]: ~3 nM; EC50 (read off the curve) [16]: ~5 nM; EC50 (read off the curve) [17]: ~9 nM
